Data taken from patent US7354588B1, “Functional derivatives of ICAM-1 with altered ability to bind LFA-1 or HRV” (Dana Farber Cancer Institute, priority 1987, dated 2008).
Entries after “also recorded” stand apart in the source; their conditions may differ.

Tests used:
[1] = system: CL203 mAb; test: Indirect immunofluorescence flow cytofluorometry: mAb CL203 binding to COS cells expressing ICAM-1 mutants (SLFI, % WT); assay type: cell-based; conditions: SLFI of CL203 for mutant normalized to wild type CL203 SLFI; level of expression
Method: (§1) For HRV binding studies, COS cells were reseeded in a 24 well plate. One day later, the confluent monolayer was washed twice with 1 ml of RPMI 1640/10 mM MgCl2/25 mM Hepes pH 7.3 (rhinovirus-14 buffer). Transfected COS cells were labeled with 51Cr for binding to LFA-1 coated plastic as previously described (Staunton, D. E., et al., Nature 339:61-64 (1989). Immunoprecipitation and indirect immunofluorescence was performed using ICAM-1 MAb RR1/1 (Rothlein, R., et al., J. Immunol. 137:1270-1274 (1986)), R6.5 (Rothlein, R., et al., J. Immunol. 141:1665-1669 (1988)), LB-1 (Clark, E. A., et al., Hum. Immunol. 16:100-113 (1986)) and CL203 (Maio, M., J. Immunol. 143:181-188 (1989), all of which references are incorporated herein by reference).
(§2) Binding of RR1, R6.5, and LB-2 mAb was normalized to binding of CL203 mAb using Specific Linear Fluorescence Intensity (SLFI): % CL203=(mAbSLFI)×100)/CL203mABSLFI
(§3) In Table 25, the notation for the mutations uses the one-letter code for the wild-type sequence followed by a slash and the one-letter code for the corresponding mutant sequence. The position of the first amino acid within the sequence is indicated. Wild type residues precede the slash followed by the residues they were substituted for in the mutant. COS cells expressing ICAM-1 mutants were tested for adherence to LFA-1 coated plastic and for binding 35S met-labeled HRV14. LFA-1 and HRV14 binding is normalized for percent of cells expressing mutant ICAM-1 and for binding of wild type expressing cells. Binding is presented as mean and standard error (SE) for multiple experiments (n). Effects of two-fold or greater were reproducible in LFA-1, HRV and mAb binding assays and thus considered significant (bold and underlined). The specific linear fluorescence intensity (SLFI) of CL203 for each mutant is normalized to that of wild type CL203 SLFI (% WT) as discussed above. The SLFI of RR1/1, R6.5 and LB-2 SLFI is normalized to the CL203 SLFI of the mutant (% CL203) as described above.

[2] = system: RR1/1 mAb; test: Indirect immunofluorescence flow cytofluorometry: mAb RR1/1 binding to COS cells expressing ICAM-1 mutants (SLFI, % CL203); assay type: cell-based; conditions: SLFI normalized to CL203 SLFI of the mutant
Method: as §1, §2, §3

[3] = system: HRV14; test: Binding of [^35S]-Met labeled HRV14 to COS cells expressing ICAM-1 mutants; assay type: cell-based, human rhinovirus 14; conditions: for HRV Binding %: 35S met-labeled HRV14 binding to COS cells expressing ICAM-1 mutant, normalized for percent of cells expressing mutant and for wild type binding, mean
[4] = system: R6.5 mAb; test: Indirect immunofluorescence flow cytofluorometry: mAb R6.5 binding to COS cells expressing ICAM-1 mutants (SLFI, % CL203); assay type: cell-based; conditions: SLFI normalized to CL203 SLFI of the mutant
Method: as §1, §2, §3

[5] = biological target: T1, LFA-1 (Homo sapiens, UniProt P05107+P20701); test: Adherence of COS cells expressing ICAM-1 or ICAM-1 mutants to plastic-bound purified LFA-1; assay type: cell-based; conditions: for LFA-1 Binding %: COS cells expressing ICAM-1 mutant adhering to LFA-1 coated plastic, normalized for percent of cells expressing mutant and for wild type binding, mean
T1 construct: endogenous in cells
T1 sequence (P20701 26-1170): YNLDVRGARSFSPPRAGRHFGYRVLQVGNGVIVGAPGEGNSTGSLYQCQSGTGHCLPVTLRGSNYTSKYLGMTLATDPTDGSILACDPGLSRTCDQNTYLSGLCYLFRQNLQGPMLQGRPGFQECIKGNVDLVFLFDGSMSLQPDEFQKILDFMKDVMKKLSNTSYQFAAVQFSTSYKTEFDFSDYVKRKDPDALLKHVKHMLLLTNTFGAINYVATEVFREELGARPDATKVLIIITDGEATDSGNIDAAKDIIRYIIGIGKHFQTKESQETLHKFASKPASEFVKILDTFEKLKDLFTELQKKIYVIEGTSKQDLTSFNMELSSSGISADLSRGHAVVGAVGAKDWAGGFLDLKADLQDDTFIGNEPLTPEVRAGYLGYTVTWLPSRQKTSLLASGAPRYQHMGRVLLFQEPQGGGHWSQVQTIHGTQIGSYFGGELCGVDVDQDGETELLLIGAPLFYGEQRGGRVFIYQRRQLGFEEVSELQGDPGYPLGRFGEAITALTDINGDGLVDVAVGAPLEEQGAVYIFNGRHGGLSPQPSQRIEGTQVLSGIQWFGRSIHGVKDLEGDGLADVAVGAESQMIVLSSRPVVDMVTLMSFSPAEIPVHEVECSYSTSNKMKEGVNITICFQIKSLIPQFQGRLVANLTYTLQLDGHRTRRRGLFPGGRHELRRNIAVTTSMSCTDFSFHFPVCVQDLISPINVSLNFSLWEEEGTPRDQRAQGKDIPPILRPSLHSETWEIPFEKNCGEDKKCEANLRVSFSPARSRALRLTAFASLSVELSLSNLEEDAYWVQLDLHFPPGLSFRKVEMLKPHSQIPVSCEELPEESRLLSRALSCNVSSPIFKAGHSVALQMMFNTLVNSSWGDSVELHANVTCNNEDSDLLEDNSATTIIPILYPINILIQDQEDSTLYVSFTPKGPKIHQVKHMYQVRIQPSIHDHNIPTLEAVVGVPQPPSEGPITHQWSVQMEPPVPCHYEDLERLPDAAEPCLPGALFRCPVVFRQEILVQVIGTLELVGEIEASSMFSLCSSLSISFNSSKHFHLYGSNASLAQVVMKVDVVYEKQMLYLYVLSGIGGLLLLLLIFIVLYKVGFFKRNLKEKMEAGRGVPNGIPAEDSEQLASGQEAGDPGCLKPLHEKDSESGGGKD
T1 sequence (P05107 23-769): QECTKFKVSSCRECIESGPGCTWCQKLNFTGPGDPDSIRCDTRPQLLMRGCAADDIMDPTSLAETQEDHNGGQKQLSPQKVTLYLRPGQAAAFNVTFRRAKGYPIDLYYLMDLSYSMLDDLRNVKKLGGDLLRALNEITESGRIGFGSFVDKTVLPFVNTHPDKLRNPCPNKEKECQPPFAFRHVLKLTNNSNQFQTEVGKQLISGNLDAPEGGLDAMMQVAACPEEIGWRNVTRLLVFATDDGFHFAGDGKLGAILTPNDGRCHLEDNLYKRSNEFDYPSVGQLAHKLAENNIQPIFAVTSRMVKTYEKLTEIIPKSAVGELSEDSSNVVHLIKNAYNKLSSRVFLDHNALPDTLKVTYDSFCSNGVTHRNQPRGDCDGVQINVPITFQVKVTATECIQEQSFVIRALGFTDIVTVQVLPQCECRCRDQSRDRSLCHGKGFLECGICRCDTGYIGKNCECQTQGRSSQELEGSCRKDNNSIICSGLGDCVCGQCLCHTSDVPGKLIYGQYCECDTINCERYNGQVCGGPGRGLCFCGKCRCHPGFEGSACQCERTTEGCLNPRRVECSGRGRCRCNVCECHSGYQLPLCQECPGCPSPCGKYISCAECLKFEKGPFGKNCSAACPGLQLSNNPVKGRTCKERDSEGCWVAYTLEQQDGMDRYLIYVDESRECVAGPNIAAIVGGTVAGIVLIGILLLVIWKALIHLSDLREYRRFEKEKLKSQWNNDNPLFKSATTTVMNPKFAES

[6] = system: LB-2 mAb; test: Indirect immunofluorescence flow cytofluorometry: mAb LB-2 binding to COS cells expressing ICAM-1 mutants (SLFI, % CL203); assay type: cell-based; conditions: SLFI normalized to CL203 SLFI of the mutant
Method: as §1, §2, §3

[7] = COS cells expressing the mutant, relative to wild type

Molecule	Cl203 % WT (SLFI) [1]	SLFI (% CL203) RR/1 [2]	HRV Binding % [3]	SLFI (% CL203) R6.5 [4]	LFA-1 Binding % [5]	LFA-1 binding of ICAM-1 mutant (in words) [5, 7]	SLFI (% CL203) LB-2 [6]	decrease in LFA-1 binding [5, 7]	HRV14 binding of ICAM-1 mutant (in words) [3, 7]	decrease in HRV14 binding [3, 7]	LFA-1 binding of ICAM-1 mutant (in words) ([5]; COS cells expressing the mutant, relative to wild type, listed as E34)
V4/G: ICAM-1 mutant, replacement of V4 with G (protein, UniProt P05362 28-532, looked up, variant V4G) Intercellular adhesion …: QTSGSPSKVILPRGGSVLVTCSTSCDQPKLLGIETPLPKKELLLPGNNRKVYELSNVQEDSQPMCYSNCPDGQSTAKTFLTVYWTPERVELAPLPSWQPVGKNLTLRCQVEGGAPRANLTVVLLRGEKELKREPAVGEPAEVTTTVLVRRDHHGANFSCRTELDLRPQGLELFENTSAPYQLQTFVLPATPPQLVSPRVLEVDTQGTVVCSLDGLFPVSEAQVHLALGDQRLNPTVTYGNDSFSAKASVSVTAEDEGTQRLTCAVILGNQSQETLQTVTIYSFPAPNVILTKPEVSEGTEVTVKCEAHPRAKVTLNGVPAQPLGPRAQLLLKATPEDNGRSFSCSATLEVAGQLIHKNQTRELRVLYGPRLDERDCPGNWTWPENSQQTPMCQAWGNPLPELKCLKDGTFPLPIGESVTVTRDLEGTYLCRARSTQGEVTRKVTVNVLSPRYEIVIITVVAAAVIMGTAGLSTYLYNRQRKIKKYRLQQAQKGTPMKPNTQATPP	111 % WT	47 % CL203	30%	73 % CL203	64%	less able to bind to LFA-1	58 % CL203				
N175/A: ICAM-1 mutant, glycosylation site N175 replaced with A (protein, UniProt P05362 28-532, looked up, variant N175A) Intercellular adhesion …: QTSVSPSKVILPRGGSVLVTCSTSCDQPKLLGIETPLPKKELLLPGNNRKVYELSNVQEDSQPMCYSNCPDGQSTAKTFLTVYWTPERVELAPLPSWQPVGKNLTLRCQVEGGAPRANLTVVLLRGEKELKREPAVGEPAEVTTTVLVRRDHHGANFSCRTELDLRPQGLELFEATSAPYQLQTFVLPATPPQLVSPRVLEVDTQGTVVCSLDGLFPVSEAQVHLALGDQRLNPTVTYGNDSFSAKASVSVTAEDEGTQRLTCAVILGNQSQETLQTVTIYSFPAPNVILTKPEVSEGTEVTVKCEAHPRAKVTLNGVPAQPLGPRAQLLLKATPEDNGRSFSCSATLEVAGQLIHKNQTRELRVLYGPRLDERDCPGNWTWPENSQQTPMCQAWGNPLPELKCLKDGTFPLPIGESVTVTRDLEGTYLCRARSTQGEVTRKVTVNVLSPRYEIVIITVVAAAVIMGTAGLSTYLYNRQRKIKKYRLQQAQKGTPMKPNTQATPP	80 % WT	162 % CL203	129%	175 % CL203	67%	did not appear to substantially effect	150 % CL203	approximately two-fold			
R13/E: ICAM-1 mutant, replacement of R13 with E (protein, UniProt P05362 28-532, looked up, variant R13E) Intercellular adhesion …: QTSVSPSKVILPEGGSVLVTCSTSCDQPKLLGIETPLPKKELLLPGNNRKVYELSNVQEDSQPMCYSNCPDGQSTAKTFLTVYWTPERVELAPLPSWQPVGKNLTLRCQVEGGAPRANLTVVLLRGEKELKREPAVGEPAEVTTTVLVRRDHHGANFSCRTELDLRPQGLELFENTSAPYQLQTFVLPATPPQLVSPRVLEVDTQGTVVCSLDGLFPVSEAQVHLALGDQRLNPTVTYGNDSFSAKASVSVTAEDEGTQRLTCAVILGNQSQETLQTVTIYSFPAPNVILTKPEVSEGTEVTVKCEAHPRAKVTLNGVPAQPLGPRAQLLLKATPEDNGRSFSCSATLEVAGQLIHKNQTRELRVLYGPRLDERDCPGNWTWPENSQQTPMCQAWGNPLPELKCLKDGTFPLPIGESVTVTRDLEGTYLCRARSTQGEVTRKVTVNVLSPRYEIVIITVVAAAVIMGTAGLSTYLYNRQRKIKKYRLQQAQKGTPMKPNTQATPP	202 % WT	4 % CL203	10%	48 % CL203	1%	substantially less capacity to bind LFA-1	4 % CL203				
Q58/H: ICAM-1 substitution mutant, Q58 replaced with H (protein, UniProt P05362 28-532, looked up, variant Q58H) Intercellular adhesion …: QTSVSPSKVILPRGGSVLVTCSTSCDQPKLLGIETPLPKKELLLPGNNRKVYELSNVHEDSQPMCYSNCPDGQSTAKTFLTVYWTPERVELAPLPSWQPVGKNLTLRCQVEGGAPRANLTVVLLRGEKELKREPAVGEPAEVTTTVLVRRDHHGANFSCRTELDLRPQGLELFENTSAPYQLQTFVLPATPPQLVSPRVLEVDTQGTVVCSLDGLFPVSEAQVHLALGDQRLNPTVTYGNDSFSAKASVSVTAEDEGTQRLTCAVILGNQSQETLQTVTIYSFPAPNVILTKPEVSEGTEVTVKCEAHPRAKVTLNGVPAQPLGPRAQLLLKATPEDNGRSFSCSATLEVAGQLIHKNQTRELRVLYGPRLDERDCPGNWTWPENSQQTPMCQAWGNPLPELKCLKDGTFPLPIGESVTVTRDLEGTYLCRARSTQGEVTRKVTVNVLSPRYEIVIITVVAAAVIMGTAGLSTYLYNRQRKIKKYRLQQAQKGTPMKPNTQATPP	135 % WT	93 % CL203	1%	107 % CL203	109%	substantially normal capacity to bind LFA-1	93 % CL203		virtually eliminated HRV14 binding		
E34/A: ICAM-1 substitution mutant, E34 replaced with A (protein, UniProt P05362 28-532, looked up, variant E34A) Intercellular adhesion …: QTSVSPSKVILPRGGSVLVTCSTSCDQPKLLGIATPLPKKELLLPGNNRKVYELSNVQEDSQPMCYSNCPDGQSTAKTFLTVYWTPERVELAPLPSWQPVGKNLTLRCQVEGGAPRANLTVVLLRGEKELKREPAVGEPAEVTTTVLVRRDHHGANFSCRTELDLRPQGLELFENTSAPYQLQTFVLPATPPQLVSPRVLEVDTQGTVVCSLDGLFPVSEAQVHLALGDQRLNPTVTYGNDSFSAKASVSVTAEDEGTQRLTCAVILGNQSQETLQTVTIYSFPAPNVILTKPEVSEGTEVTVKCEAHPRAKVTLNGVPAQPLGPRAQLLLKATPEDNGRSFSCSATLEVAGQLIHKNQTRELRVLYGPRLDERDCPGNWTWPENSQQTPMCQAWGNPLPELKCLKDGTFPLPIGESVTVTRDLEGTYLCRARSTQGEVTRKVTVNVLSPRYEIVIITVVAAAVIMGTAGLSTYLYNRQRKIKKYRLQQAQKGTPMKPNTQATPP	132 % WT	142 % CL203	66%	150 % CL203	0%	completely eliminates LFA-1 binding; also recorded: totally eliminates LFA-1 binding	142 % CL203		weak or a non-detectable affect on HRV binding	2 fold	substantially less capacity to bind LFA-1
N103/K: ICAM-1 mutant, replacement of N103 with K (protein, UniProt P05362 28-532, looked up, variant N103K) Intercellular adhesion …: QTSVSPSKVILPRGGSVLVTCSTSCDQPKLLGIETPLPKKELLLPGNNRKVYELSNVQEDSQPMCYSNCPDGQSTAKTFLTVYWTPERVELAPLPSWQPVGKKLTLRCQVEGGAPRANLTVVLLRGEKELKREPAVGEPAEVTTTVLVRRDHHGANFSCRTELDLRPQGLELFENTSAPYQLQTFVLPATPPQLVSPRVLEVDTQGTVVCSLDGLFPVSEAQVHLALGDQRLNPTVTYGNDSFSAKASVSVTAEDEGTQRLTCAVILGNQSQETLQTVTIYSFPAPNVILTKPEVSEGTEVTVKCEAHPRAKVTLNGVPAQPLGPRAQLLLKATPEDNGRSFSCSATLEVAGQLIHKNQTRELRVLYGPRLDERDCPGNWTWPENSQQTPMCQAWGNPLPELKCLKDGTFPLPIGESVTVTRDLEGTYLCRARSTQGEVTRKVTVNVLSPRYEIVIITVVAAAVIMGTAGLSTYLYNRQRKIKKYRLQQAQKGTPMKPNTQATPP	91 % WT	17 % CL203	13%	60 % CL203	12%	substantially incapable of binding LFA-1	22 % CL203				
